The target of assay [1] is T1, recombinant human CXCL11/I-TAC (human, UniProt O14625 22-94, biotinylated in the ELISA; 125I label in the radioligand assays).
T1 sequence (looked up): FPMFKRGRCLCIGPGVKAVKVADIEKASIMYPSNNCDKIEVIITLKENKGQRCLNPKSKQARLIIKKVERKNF
As to the kind of experiment: cell-based or functional assay.

The target of assay [2] is T1, recombinant human CXCL11/I-TAC. In words: inhibition of 125I-CXCL11 (46 pM) binding to hCXCR3 on HEK293T cells; radioligand preincubated with purified Nanobody.
The target in assay [3] is T2, recombinant human CCL5/RANTES (Mucin stalk Chimera) (human, UniProt P13501 24-91, biotinylated in the ELISA).
T2 construct: also called mucin-CCL5; not shown: mucin stalk of the chimera (R&D 978-RN/CF); origin, limits and order not described
T2 sequence (looked up): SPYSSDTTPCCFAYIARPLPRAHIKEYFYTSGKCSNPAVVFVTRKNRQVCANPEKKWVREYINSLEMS
As to the kind of experiment: ELISA, periplasmic extract on biotinylated mucin-CCL5 on neutravidin, anti-myc detection. (ELISA stands for enzyme-linked immunosorbent assay.)

Assay [4] concerns the target T3, CCL5 (UniProt P13501 24-91, 125I label).
T3 construct: also called RANTES
T3 sequence (looked up): T2 sequence (looked up)
In words: inhibition of 125I-CCL5 binding to hCCR1 (HEK293T cells), purified Nanobody.

Assay [5] concerns the target T3, CCL5. In words: inhibition of 125I-CCL5 (56 pM) binding to CCR1 on HEK293T cells; radioligand preincubated with purified Nanobody.
The target in assay [6] is T1, recombinant human CXCL11/I-TAC. As to the kind of experiment: inhibition of 125I-CXCL11 binding to hCXCR3 (HEK293T cells), 10x diluted periplasm; ELISA grade at the label.
For assay [7] the target is unchanged. In words: ELISA, Nanobody captured by coated anti-myc antibody, biotinylated CXCL11, streptavidin-HRP.
The target of assay [8] is T4, recombinant human CCL2/MCP1 (human, UniProt P13500 24-99, 125I label in the radioligand assays).
T4 construct: Immunogen and selection antigen was the Mucin stalk Chimera (R&D 979-MC/CF)
T4 sequence (P13500 24-99 limits assumed): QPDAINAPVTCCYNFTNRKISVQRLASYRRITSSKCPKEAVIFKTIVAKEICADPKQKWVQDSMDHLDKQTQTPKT
As to the kind of experiment: inhibition of 125I-CCL2 (59 pM) binding to HA3-CCR2 on HEK293T cells; radioligand preincubated with purified Nanobody.

In assay [9] the target is T4, recombinant human CCL2/MCP1. As to the kind of experiment: inhibition of 125I-CCL2 binding to HCMV-US28 (HEK293T cells), 10x diluted periplasm; ELISA grade at the label.
Assay [10] has the same target. As to the kind of experiment: inhibition of 125I-CCL2 binding to hCCR2 (HEK293T cells), purified Nanobody.
The target in assay [11] is T1, recombinant human CXCL11/I-TAC. As to the kind of experiment: inhibition of 125I-CXCL11 binding to hCXCR3 (HEK293T cells), 10x diluted periplasm; ELISA grade at the label. The source holds these as a separate data set.

Positions count from the first letter of the chain named.

Broadly, the pIC50 is the negative decadic logarithm of the IC50, by convention in mol/L.

B1: Nanobody 11B2 (VHH)
VHH: EVQLVESGGGLVQAGGSLRLSCAASGFTFDDYAMCWFRQAPGKEREGVSCISSSDGSTYYADSVKGRFTISSDNAKNTVYLHMNSLKPEDTAVYYCAAAQGVVAGASLVWVPLDEYDYWGQGTQVTVSS
notes: llama VHH against CXCL11; purified; not shown: C-terminal c-myc tag and (His)6 tag coded by the vector
In the case of B1, the “inhibition of CXCL11-induced PLC activation (3H-inositol phosphate accumulation, HEK293T cells with CXCR3 and G-alpha-qi5), pIC50” value (“inhibition” for short) in assay [1] came out at 7.6. For the same molecule, the pIC50 in assay [2] was 9.1.

B2: Nanobody 10E8 (VHH)
VHH: EVQLVESGGGLVQAGGSLRLSCAASGRTFSSYYMGWFRQAPGKEREFVARIGWSSGSTYYADSMKGRFTISRDNAKNTVYLQMNSLKPEDTAVYYCAAAPRYTLATVTYDYDYWGQGTQVTVSS
notes: llama VHH against CCL5; purified; not shown: C-terminal c-myc tag and (His)6 tag coded by the vector
For the molecule B2, the binding result in [3] and in assay [4] was “binds” each time.

B3: Nanobody 17B11 (VHH)
VHH: EVQLVESGGGLVQAGGSLRLSCAASGFNFDDYAIGWFRQAPGKEREGVSCISSSDGSTYSADSVKGRFTISSDNAKNTVYLQMNNLNPEDTAAYYCAAAPPDCTYYPATPIYYWGQGTQVTVSS
notes: as for B2
Turning to B3, in assay [5], the pIC50 amounted to 9.

B4: Nanobody 10A12 (VHH)
VHH: B3 VHH with N28T, A40V, E46K, S57T, S60Y, A61E, V79I, N85S, N87K, A93V
notes: as for B2
For the molecule B4, the binding result in [3] and in assay [4] was “binds” throughout.

B5: Nanobody 11F10 (VHH)
VHH: EVQLVESGGGLVQAGGSLRLSCAASGFTLDDYAIGWFRQAPGKEREGVSCISSSDGSTYYADSVKGRFTISSDNAKNTVYLQMNSLKPEDTAVYYCAAGQGVLRLWVLSSSSYDYWGQGTQVTVSS
notes: llama VHH against CXCL11; not shown: C-terminal c-myc tag and (His)6 tag coded by the vector
As for B5, in assay [6], the binding result is given as “binds”.

B6: Nanobody 38C6 (VHH)
VHH: EVQLVESGGGLVQAGGSLRLSCAASGFTFDDYAIGWFRQAPGKEREGVSCCSSSDGSTYYADSVKGRFTISSDNAKNTVYLQMNSLKPEDTAVYYCAATQGLTIATMWNPVSYDYWGQGTQVTVSS
notes: as for B5
Turning to B6, in [7], the binding result is listed as “binds”.

B7: Nanobody 38G6 (VHH)
VHH: B6 VHH with A23E, T103L, V111A
notes: as for B5
Consider B7, for which, in [7], the binding result was “binds”.

B8: Nanobody 38E6 (VHH)
VHH: EVQLVESGGGLAQPGGSLRLSCAASGFTFSSYAMSWVRQAPGKGLEWVSAINSGGGSTSYADSVKGRFTISRDNAKNTLYLQMNSLKPEDTAVYYCQRGDYEFEPLEYDYWGQGTQVTVSS
notes: as for B5
For the molecule B8, the binding result in [7] is reported as “binds”.

B9: Nanobody 11B1 (VHH)
VHH: EVQLVESGGGLVQAGGSLRLSCAASGFTFDDYTIGWFRQAPGKEREGVSCISSSDGSTYYADSVKGRFTISSDNVKNTVYLQMNSLKPEDTAVYYCAASLGFLTAQCMGVMSIGLSEYDYWGQGTQVTVSS
notes: as for B1
As for B9, in [1], the “inhibition” value is 7.8. Also, the pIC50 in assay [2] was 9.6.

B10: Nanobody 8E10 (VHH)
VHH: EVQLVESGGGLVQAGDSLRLSCAASGRTFSSYRMGWFRQAPGKEREFVAAISRSGASAYYADSVKGRFTCSRDNAKDTVYLQMNKLKPEDTAVYYCAASSRMGVDDPETYGYWGQGTQVTVSS
notes: llama VHH against CCL2; purified; not shown: C-terminal c-myc tag and (His)6 tag coded by the vector
Take B10: in [8], the pIC50 was 8.7.

B11: Nanobody 8H7 (VHH)
VHH: B10 VHH with C70S, D77N, M102I, T109A, G114S
notes: llama VHH against CCL2; not shown: C-terminal c-myc tag and (His)6 tag coded by the vector
Take B11: the binding result in assay [9] is listed as “binds”.

B12: Nanobody 11G10 (VHH)
VHH: EVQLVESGGGLVQPGGSLRLSCAASGFTLDDYAIGWFRQAPGKEREGVSSISSSDGRTYYADSVKGRFAISRDNAKNTVYLQMNSLKPEDTAVYYCAADQGVVAYDALRPYRWLEVWGQGTLVTVSS
notes: as for B5
B12: the binding result in assay [6] is recorded as “binds”.

B13: Nanobody 8A3 (VHH)
VHH: EVQLVESGGGLVQAGGSLRLSCVASGLTFSTYSMGWFRQAPGKEREFVAAINGGGSSTTYADSVKGRFTISRDNAKNTVYLQMNSLKPEDTAVYSCAVKMYSGSYSSPPGYNYWGQGTQVTVSS
notes: as for B11
For the molecule B13, in assay [10], the binding result is listed as “binds”.

B14: Nanobody 15A8 (VHH)
VHH: EVQLVESGGGLVQAGGSLRLSCAASGFTFDDYAIGWFRQAPGKEREGPLCISSSDGSTYYADSVKGRFTISSDNAKNTVYLQMNSLKPEDTAVYYCAAESLGDYGLASPLPADFGSWGQGTQVTVSS
notes: as for B11
For B14, in assay [9], the binding result is given as “binds”.

B15: Nanobody 11A7 (VHH)
VHH: EVQLVESGGGLVQAGGSLRLSCAASGFTFDDYAIGWFRQAPGKEREGVSIISSSDGSTYYADSVKGRFTISSDNAKNTVYLQMNSLKPEDTAVYYCAAGQGWVIATMTSFRAHREYDYWGQGTQVTVSS
notes: llama VHH against CXCL11; also called 11E10; 11E11; not shown: C-terminal c-myc tag and (His)6 tag coded by the vector
Consider B15, for which the binding result in assay [11] was “binds”.

B16: Nanobody 11B7 (VHH)
VHH: B15 VHH with T28N, S57N
notes: as for B1
As for B16, in [1], the “inhibition” value was 7.9. In addition, the negative-log IC50 (pIC50) in assay [2] amounted to 9.6.

B17: Nanobody 11E7 (VHH)
VHH: B15 VHH with S57T, S72T
notes: as for B5
As for B17, in assay [6], the binding result is reported as “binds”.

B18: Nanobody 8A8 (VHH)
VHH: EVQLVESGGGLVQAGGSLRLSCAASGRTFSSYRMGWFRQAPEKEREFVAVITRSGSDQFYSNSVKGRFTISRDNAKNTVYLQMNSLKPEDTAVYYCAAGAQIGWAEASTYDYWGQGTQVTVSS
notes: llama VHH against CCL2; also called 8D8; 15C7; not shown: C-terminal c-myc tag and (His)6 tag coded by the vector
As to B18, the binding result in [9] is given as “binds”.

B19: Nanobody 15C8 (VHH)
VHH: B18 VHH with S56G, D57S, Q58T, I102M
notes: as for B11
Regarding B19, the binding result in [9] is reported as “binds”.

B20: Nanobody 8H8 (VHH)
VHH: B18 VHH with V2M, V50L, T52N, S56G, D57S, I102M
notes: as for B11
B20: the binding result in [9] was “binds”.

B21: Nanobody 11D9 (VHH)
VHH: EVQLVESGGGLVQAGGSLRLSCAASGFTFDDYPIGWFRQAPGKEREGISCISSSDGSTYYADSVKGRFTISSDNAKNTVYLQMNSLKPEDTAVYYCAAGLGALVRYYSGSYYCDGMDYWGKGTLVTVSS
notes: as for B5
B21: the binding result in assay [6] is reported as “binds”.

B22: Nanobody 8D3 (VHH)
VHH: EVQLVESGGGLVQAGGSLRLSCAASGRTFSNYAMGWFRQAPGKEREFVAAISWSDGSTYYADSVKGRFTISRDNAKNTVYLLMNSLNPEDTAVYYCAADLLAEDPAAPSRGYDYWGQGTQVTVSS
notes: as for B11
With B22, in assay [10], the binding result is given as “binds”.

B23: Nanobody 10C8 (VHH)
VHH: EVQLVESGGGLVQAGDSLRLSCATSGRTFTMDGMGWFRQAPGKEREFVATISRSGVGTFYADSVKGRFTISRDNAKNMVYLQMNSLKPEDTALYYCAARPDYTLGTSSYDYDSWGQGTQVTVSS
notes: llama VHH against CCL5; purified; also called 10D8; 10E9; not shown: C-terminal c-myc tag and (His)6 tag coded by the vector
In turn, B23 had a negative-log IC50 (pIC50) in assay [5] of 9.3.

B24: Nanobody 8E3 (VHH)
VHH: EVQLVESGGGLVQAGGSLRLSCAASGGTFSSYRMGWFRQAPGKEREFVTLISRSGGTTDYTDSVKGRFTISRDNAKNTVSLQMNNLKPADTAVYYCAAAGSMGWNHLRDYDYWGQGTQVTVSS
notes: as for B10
As for B24, in assay [8], the pIC50 worked out at 9.

The record behind these values is patent US20100092460A1 (Ablynx, published 2010).
